From patent US20180362604A1
pKd: −log10 of the molar value.

What was measured:
Activin A = Activin A (UniProt P08476); test: cell-based or functional assay
Myostatin [1] = target: Myostatin (UniProt O14793); test: cell-based or functional assay
FcRn receptor [2] = test: SPR
Myostatin [3] = target: Myostatin (UniProt O14793); test: SPR
FcRn receptor [4] = test: FcRn binding, 'standard methods'
Myostatin [5] = target: Myostatin (UniProt O14793); test: SPR (BIAcore), anti-human Fc capture, myostatin as analyte

Chain of FcRn receptor (P55899 24-297, chain 1 of 2): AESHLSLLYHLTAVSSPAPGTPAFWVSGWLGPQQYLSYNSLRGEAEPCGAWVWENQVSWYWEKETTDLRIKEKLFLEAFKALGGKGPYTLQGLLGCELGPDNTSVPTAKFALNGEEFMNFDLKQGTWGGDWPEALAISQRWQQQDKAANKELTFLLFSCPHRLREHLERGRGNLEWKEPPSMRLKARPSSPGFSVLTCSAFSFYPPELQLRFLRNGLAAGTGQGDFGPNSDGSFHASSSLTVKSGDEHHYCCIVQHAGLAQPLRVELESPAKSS
Chain of FcRn receptor (P61769 21-119, chain 2 of 2, further chain): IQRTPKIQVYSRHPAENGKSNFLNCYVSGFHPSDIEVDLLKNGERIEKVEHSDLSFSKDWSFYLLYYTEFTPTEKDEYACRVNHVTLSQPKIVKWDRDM
Chain of Myostatin (O14793 267-375 limits assumed): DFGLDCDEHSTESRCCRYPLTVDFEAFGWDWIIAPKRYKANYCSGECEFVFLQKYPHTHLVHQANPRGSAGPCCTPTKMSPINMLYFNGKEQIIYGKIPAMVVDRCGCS
Chain of Activin A (P08476 311-426): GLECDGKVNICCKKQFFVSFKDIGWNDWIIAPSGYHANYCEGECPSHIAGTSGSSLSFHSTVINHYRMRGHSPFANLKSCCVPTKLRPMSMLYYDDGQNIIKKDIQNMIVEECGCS

Row | Substance | Activin A IC50, cell-based assay for SMAD pathway (A204 luciferase reporter) (Activin A) | Myostatin IC50, cell-based assay for SMAD pathway (A204 luciferase reporter) (Myostatin [1]) | pKd (FcRn receptor [2]) | pKd (Myostatin [3]) | pKd (FcRn receptor [4]) | pKd (Myostatin [5])
1 | FS315K(81,82,84)E-hFcLALA (Fc fusion) | 1000 pM | 400 pM |  |  |  | 
2 | FS315R78E/K(82,84)E-hFcLALA (Fc fusion) | 600 pM | 500 pM |  |  |  | 
3 | FS315ΔHBS-hFcLALA (Fc fusion) |  | 400 pM | 7.32 | 10.76 | 6.43 | 
4 | monoFS315ΔHBS-hFcLALA (Fc fusion) |  |  |  |  | 7.44 | 11.48
